Reference: IntAct's records for PubMed 11779178

B1: Merlin (Homo sapiens), P35240-3 (parent)
chain: MAGAIASRMSFSSLKRKQPKTFTVRIVTMDAEMEFNCEMKWKGKDLFDLVCRTLGLRETWFFGLQYTIKDTVAWLKMDKKVLDHDVSKEEPVTFHFLAKFYPENAEEELVQEITQHLFFLQVKKQILDEKIYCPPEASVLLASYAVQAKYGDYDPSVHKRGFLAQEELLPKRVINLYQMTPEMWEERITAWYAEHRGRARDEAEMEYLKIAQDLEMYGVNYFAIRNKKGTELLLGVDALGLHIYDPENRLTPKISFPWNEIRNISYSDKEFTIKPLDKKIDVFKFNSSKLRVNKLILQLCIGNHDLFMRRRKADSLEVQQMKAQAREEKARKQMERQRLAREKQMREEAERTRDELERRLLQMKEEATMANEALMRSEETADLLAEKAQITEEEAKLLAQKAAEAEQEMQRIKATAIRTEEEKRLMEQKVLEAEVLALKMAEESERRAKEADQLKQDLQEAREAERRAKQKLLEIATKPTYPPMNPIPAPLPPDIPSFNLIGDSLSFDFKDTDMKRLSMEIEKEKVEYMEKSKHLQEQLNELKTEIEALKLKERETALDILHNENSDRGGSSKHNTIKKPQAQGRRPICI

Columns and labels:
[1] = variants of: B1; conditions: with eif3c_human EIF3C
HGS, O14964-2 = variants of: B1; conditions: with HGS
HGS, O14964-2, sequence (O14964 other isoform, or with tags, fused parts or gaps): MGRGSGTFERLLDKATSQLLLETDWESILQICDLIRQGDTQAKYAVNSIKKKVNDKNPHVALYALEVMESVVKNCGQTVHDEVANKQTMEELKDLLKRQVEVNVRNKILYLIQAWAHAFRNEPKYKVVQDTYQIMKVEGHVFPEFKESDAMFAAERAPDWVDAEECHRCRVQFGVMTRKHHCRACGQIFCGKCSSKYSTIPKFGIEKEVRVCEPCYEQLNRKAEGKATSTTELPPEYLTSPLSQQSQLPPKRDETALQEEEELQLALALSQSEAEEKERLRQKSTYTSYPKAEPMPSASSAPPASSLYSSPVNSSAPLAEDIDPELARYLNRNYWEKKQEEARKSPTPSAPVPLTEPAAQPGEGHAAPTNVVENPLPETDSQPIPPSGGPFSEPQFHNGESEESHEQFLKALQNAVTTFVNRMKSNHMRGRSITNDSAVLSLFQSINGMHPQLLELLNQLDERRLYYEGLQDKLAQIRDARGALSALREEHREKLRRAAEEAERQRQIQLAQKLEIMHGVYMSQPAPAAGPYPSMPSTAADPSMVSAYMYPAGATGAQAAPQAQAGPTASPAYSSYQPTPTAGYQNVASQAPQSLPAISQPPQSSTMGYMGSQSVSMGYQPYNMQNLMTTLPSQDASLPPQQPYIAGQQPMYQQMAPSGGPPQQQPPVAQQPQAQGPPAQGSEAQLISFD

HGS, O14964-1 = variants of: B1; conditions: with HGS
HGS, O14964-1, sequence (O14964 whole entry): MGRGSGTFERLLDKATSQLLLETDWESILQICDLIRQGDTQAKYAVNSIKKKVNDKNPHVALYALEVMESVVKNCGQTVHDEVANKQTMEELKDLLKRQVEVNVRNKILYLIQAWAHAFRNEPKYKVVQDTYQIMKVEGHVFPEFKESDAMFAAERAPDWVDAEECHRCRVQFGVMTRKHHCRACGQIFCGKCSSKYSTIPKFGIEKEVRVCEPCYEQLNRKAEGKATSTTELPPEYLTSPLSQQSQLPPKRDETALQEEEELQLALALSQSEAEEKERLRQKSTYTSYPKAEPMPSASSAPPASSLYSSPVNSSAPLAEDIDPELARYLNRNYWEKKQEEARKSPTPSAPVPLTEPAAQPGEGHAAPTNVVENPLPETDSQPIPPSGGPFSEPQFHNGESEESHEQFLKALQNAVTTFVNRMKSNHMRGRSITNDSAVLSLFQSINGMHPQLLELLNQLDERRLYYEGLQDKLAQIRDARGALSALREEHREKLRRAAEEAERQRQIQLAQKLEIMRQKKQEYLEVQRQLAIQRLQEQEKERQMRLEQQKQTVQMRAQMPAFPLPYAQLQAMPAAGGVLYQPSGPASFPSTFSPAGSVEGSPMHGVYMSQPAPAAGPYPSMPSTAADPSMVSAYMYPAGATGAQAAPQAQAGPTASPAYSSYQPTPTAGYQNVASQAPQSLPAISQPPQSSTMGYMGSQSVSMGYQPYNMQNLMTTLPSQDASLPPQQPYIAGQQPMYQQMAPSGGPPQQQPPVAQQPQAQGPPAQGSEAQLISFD

NF2, P35240-1 = variants of: B1; conditions: with NF2, P35240-1
[2] = variants of: B1; conditions: with sptb2_human SPTBN1, Q01082
sptb2_human SPTBN1, Q01082, sequence (Q01082 whole entry): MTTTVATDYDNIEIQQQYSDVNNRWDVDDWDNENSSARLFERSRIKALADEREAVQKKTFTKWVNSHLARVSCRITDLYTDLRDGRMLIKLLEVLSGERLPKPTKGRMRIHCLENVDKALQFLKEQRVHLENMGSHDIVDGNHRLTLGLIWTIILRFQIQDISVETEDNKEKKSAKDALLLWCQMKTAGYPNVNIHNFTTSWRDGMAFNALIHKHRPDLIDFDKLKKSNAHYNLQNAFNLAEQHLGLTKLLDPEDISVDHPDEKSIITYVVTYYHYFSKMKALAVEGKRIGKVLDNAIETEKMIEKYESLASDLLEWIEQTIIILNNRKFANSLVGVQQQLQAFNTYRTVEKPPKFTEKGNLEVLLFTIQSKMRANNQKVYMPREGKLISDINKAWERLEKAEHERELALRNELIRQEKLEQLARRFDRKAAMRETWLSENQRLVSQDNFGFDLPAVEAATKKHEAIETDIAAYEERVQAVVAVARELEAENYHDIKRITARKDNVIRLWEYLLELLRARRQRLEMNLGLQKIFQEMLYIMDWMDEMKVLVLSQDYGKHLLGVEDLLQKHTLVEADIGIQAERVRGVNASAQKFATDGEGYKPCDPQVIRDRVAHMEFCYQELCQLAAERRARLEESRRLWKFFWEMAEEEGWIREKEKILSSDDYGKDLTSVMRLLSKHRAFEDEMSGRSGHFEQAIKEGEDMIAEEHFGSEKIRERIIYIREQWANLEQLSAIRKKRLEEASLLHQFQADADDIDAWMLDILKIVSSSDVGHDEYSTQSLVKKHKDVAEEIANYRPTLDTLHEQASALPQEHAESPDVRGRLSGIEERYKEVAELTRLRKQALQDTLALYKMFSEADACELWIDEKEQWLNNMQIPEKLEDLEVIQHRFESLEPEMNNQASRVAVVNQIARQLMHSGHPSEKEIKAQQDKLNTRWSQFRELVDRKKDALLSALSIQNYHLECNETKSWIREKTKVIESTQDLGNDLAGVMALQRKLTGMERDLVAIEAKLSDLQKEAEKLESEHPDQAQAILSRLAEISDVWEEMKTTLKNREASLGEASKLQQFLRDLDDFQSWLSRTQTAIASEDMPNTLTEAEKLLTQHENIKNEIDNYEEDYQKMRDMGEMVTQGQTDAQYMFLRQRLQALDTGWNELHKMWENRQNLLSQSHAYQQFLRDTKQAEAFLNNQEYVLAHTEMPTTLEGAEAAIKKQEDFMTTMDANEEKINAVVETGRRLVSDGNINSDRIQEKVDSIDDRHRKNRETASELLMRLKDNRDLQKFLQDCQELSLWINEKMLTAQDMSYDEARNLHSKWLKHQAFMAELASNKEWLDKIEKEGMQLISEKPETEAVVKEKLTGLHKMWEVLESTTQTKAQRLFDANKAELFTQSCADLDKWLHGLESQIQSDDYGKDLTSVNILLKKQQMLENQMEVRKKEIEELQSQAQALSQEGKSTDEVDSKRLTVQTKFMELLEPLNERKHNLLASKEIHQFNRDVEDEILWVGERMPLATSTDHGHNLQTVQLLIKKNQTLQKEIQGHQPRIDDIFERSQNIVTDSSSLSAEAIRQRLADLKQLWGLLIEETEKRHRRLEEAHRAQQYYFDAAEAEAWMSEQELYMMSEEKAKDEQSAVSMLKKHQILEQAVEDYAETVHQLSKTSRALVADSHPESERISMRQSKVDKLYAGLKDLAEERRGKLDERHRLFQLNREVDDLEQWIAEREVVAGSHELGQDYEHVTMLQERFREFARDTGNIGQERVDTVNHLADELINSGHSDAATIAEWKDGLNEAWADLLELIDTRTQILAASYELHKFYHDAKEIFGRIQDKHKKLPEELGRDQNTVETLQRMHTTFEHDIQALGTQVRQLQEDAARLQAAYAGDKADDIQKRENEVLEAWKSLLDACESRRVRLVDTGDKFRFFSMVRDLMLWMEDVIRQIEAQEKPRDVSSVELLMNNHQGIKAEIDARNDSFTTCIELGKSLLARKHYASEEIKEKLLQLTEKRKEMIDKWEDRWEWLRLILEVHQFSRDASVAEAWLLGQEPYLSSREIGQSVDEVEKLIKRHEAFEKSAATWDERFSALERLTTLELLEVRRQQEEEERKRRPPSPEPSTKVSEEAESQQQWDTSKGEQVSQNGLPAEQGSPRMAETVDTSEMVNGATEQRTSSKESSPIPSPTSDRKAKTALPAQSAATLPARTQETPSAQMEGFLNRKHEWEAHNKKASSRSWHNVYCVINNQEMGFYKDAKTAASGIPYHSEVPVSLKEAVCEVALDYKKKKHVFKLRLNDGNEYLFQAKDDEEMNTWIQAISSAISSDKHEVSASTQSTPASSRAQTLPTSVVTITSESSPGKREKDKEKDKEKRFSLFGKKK

Variant	effect of a mutation on the interaction [1]	effect of a mutation on the interaction (HGS, O14964-2)	effect of a mutation on the interaction (HGS, O14964-1)	effect of a mutation on the interaction (NF2, P35240-1)	effect of a mutation on the interaction [2]
MAGAIASRMSFSSLKRKQPKTFTVRIVTMDAEMEFNCEMKWKGKDRFDLVCRTLGLRETWFFGLQYTIKDTVAWLKMDKKVLDHDVSKEEPVTFHFLAKFYPENAEEELVQEITQHLFFLQVKKQILDEKIYCPPEASVLLASYAVQAKYGDYDPSVHKRGFLAQEELLPKRVINLYQMTPEMWEERITAWYAEHRGRARDEAEMEYLKIAQDLEMYGVNYFAIRNKKGTELLLGVDALGLHIYDPENRLTPKISFPWNEIRNISYSDKEFTIKPLDKKIDVFKFNSSKLRVNKLILQLCIGNHDLFMRRRKADSLEVQQMKAQAREEKARKQMERQRLAREKQMREEAERTRDELERRLLQMKEEATMANEALMRSEETADLLAEKAQITEEEAKLLAQKAAEAEQEMQRIKATAIRTEEEKRLMEQKVLEAEVLALKMAEESERRAKEADQLKQDLQEAREAERRAKQKLLEIATKPTYPPMNPIPAPLPPDIPSFNLIGDSLSFDFKDTDMKRLSMEIEKEKVEYMEKSKHLQEQLNELKTEIEALKLKERETALDILHNENSDRGGSSKHNTIKKPQAQGRRPICI [L46R]	disrupting interaction strength	decreasing interaction strength	decreasing interaction strength	disrupting interaction strength	disrupting interaction strength
MAGAIASRMSFSSLKRKQPKTFTVRIVTMDAEMEFNCEMKCKGKDLFDLVCRTLGLRETWFFGLQYTIKDTVAWLKMDKKVLDHDVSKEEPVTFHFLAKFYPENAEEELVQEITQHLFFLQVKKQILDEKIYCPPEASVLLASYAVQAKYGDYDPSVHKRGFLAQEELLPKRVINLYQMTPEMWEERITAWYAEHRGRARDEAEMEYLKIAQDLEMYGVNYFAIRNKKGTELLLGVDALGLHIYDPENRLTPKISFPWNEIRNISYSDKEFTIKPLDKKIDVFKFNSSKLRVNKLILQLCIGNHDLFMRRRKADSLEVQQMKAQAREEKARKQMERQRLAREKQMREEAERTRDELERRLLQMKEEATMANEALMRSEETADLLAEKAQITEEEAKLLAQKAAEAEQEMQRIKATAIRTEEEKRLMEQKVLEAEVLALKMAEESERRAKEADQLKQDLQEAREAERRAKQKLLEIATKPTYPPMNPIPAPLPPDIPSFNLIGDSLSFDFKDTDMKRLSMEIEKEKVEYMEKSKHLQEQLNELKTEIEALKLKERETALDILHNENSDRGGSSKHNTIKKPQAQGRRPICI [W41C]	with no effect	with no effect	with no effect	decreasing interaction strength	increasing interaction strength
